Experimental data reported in PMC3589550 (Nature structural & molecular biology, 2011).

B1: vIRF4^153–256/Δ202–216 (domain or fragment)
chain: SDTREQSYEEAGAAAPAPPKAPSGLRGRPRKSNRYYNVGDITTEQKAACGSSGTRQVTQASSFTWRVPGDPPAPSTLTGPSDPHSSGAG
B2: vIRF4^153–256 (domain or fragment)
chain: SDTREQSYEEAGAAAPAPPKAPSGLRGRPRKSNRYYNVGDITTEQKAACSVWIPVNEGASTSGMGSSGTRQVTQASSFTWRVPGDPPAPSTLTGPSDPHSSGAG
B3: MDM2^137–152 peptide (peptide, UniProt Q00987 137-152, looked up)
peptide: DLVQELQEEKPSSSHL
B4: EBNA1^435–449 peptide (peptide)
peptide: EQGPADDPGEGPSTG
B5: vIRF4^153–216 (domain or fragment)
chain: SDTREQSYEEAGAAAPAPPKAPSGLRGRPRKSNRYYNVGDITTEQKAACSVWIPVNEGASTSGM
B6: vIRF4^153–256/Δ202–216/Δ237–256 (domain or fragment)
chain: SDTREQSYEEAGAAAPAPPKAPSGLRGRPRKSNRYYNVGDITTEQKAACGSSGTRQVTQASSFTWRVPG

What follows are binders tested against HAUSP^62–205 (HAUSP TRAF domain) (UniProt Q93009 62-205) (assay: ITC).
Sequence of HAUSP^62–205 (HAUSP TRAF domain) (Q93009 62-205): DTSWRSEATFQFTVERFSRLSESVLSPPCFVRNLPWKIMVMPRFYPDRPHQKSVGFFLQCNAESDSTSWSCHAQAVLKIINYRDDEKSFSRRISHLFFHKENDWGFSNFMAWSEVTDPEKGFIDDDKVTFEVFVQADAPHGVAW

In order of rising Kd:
1. B2  0.076 µM
2. B4  0.48 µM
3. B5  0.54 µM
4. B1  3.45 µM
5. B6  4.03 µM
6. B3  11.1 µM

With B3 the Ka was 91000 M⁻¹.
